One may read the Kd as a measure of binding affinity in units of concentration. A lower Kd goes with tighter binding. The koff is a measure of how fast the partners let go of each other. Low values mean a long-lived complex, high ones a short-lived complex. As a reminder, the kon is a measure of how fast the partners come together. Lower therefore signals slower complex formation. A word on the stoichiometry N: it is a count of units in the complex or per binding partner.

What all share (conditions): both partners purified
In assay [1] the target is T1, Avi-tagged HSP90β (full-length human HSP90β, residues 1–724) (human, UniProt P08238 1-724, biotin (in vivo biotinylation, N-terminally biotinylated)).
T1 construct: HSP90β, human, residues 1-724, cDNA isolated from HEK293T cells; Modified pET21a vector: N-terminal His6-tag, then the Avi tag, then a TEV cleavage site; Used apo (open state) or after incubation with AMPPNP (closed state); the two states are told apart by the assay; Host surmised to be E. coli; also called His6-Avi-tagged HSP90β; N-terminally biotinylated hHSP90B; source: cells grown in TB media …
Kind of assay: BLI; HSP90_(AMPPNP) (closed state): biotinylated Avi-tagged HSP90β on streptavidin sensors, AIPL1 or mutants in solution; Octet RED96, 26 °C, 25 mM Tris, 200 mM NaCl, 2.5% glycerol, 1 mM TCEP, 0.5 mg/ml BSA, pH 7.5; 1:1 kinetic fit (KD = koff/kon) and steady-state fit.

In assay [2] the target is T1, Avi-tagged HSP90β (full-length human …). Briefly: BLI; apo HSP90: biotinylated Avi-tagged HSP90β on streptavidin sensors, AIPL1 in solution; Octet RED96, 26 °C, 25 mM Tris, 200 mM NaCl, 2.5% glycerol, 1 mM TCEP, 0.5 mg/ml BSA, pH 7.5; 1:1 kinetic fit (KD = koff/kon) and steady-state fit. (In general: In BLI a coated tip is dipped into the sample, and binding shifts an interference pattern.)

The target in assay [3] is T2, full-length human HSP90β (residues 1–724), pET15b construct (human, UniProt P08238 1-724).
T2 construct: HSP90β, human, residues 1-724, cDNA isolated from HEK293T cells; Cloned into pET15b through Nco1-Nde1 sites; Host surmised to be E. coli; also called apo HSP90; HSP90_(AMPPNP); source: purified by SEC
Briefly: cross-linking + other: mass photometry; DSS (0.5 mM) or glutaraldehyde (0.03%) added to HSP90β (15 μM), AIPL1 (25 μM) or their mixture (HSP90_(AMPPNP)/AIPL1), 15 to 30 min at 25 °C, 25 mM Hepes pH 7.5, 200 mM NaCl, 5% glycerol, 1 mM TCEP; products on 3 to 8% Tris-acetate gel and by mass photometry.

“And” between values parts separate entries of the source, which are not always exact repeats. Equal values may be shown once.

T1 sequence (P08238 whole entry, the tested form may be a part): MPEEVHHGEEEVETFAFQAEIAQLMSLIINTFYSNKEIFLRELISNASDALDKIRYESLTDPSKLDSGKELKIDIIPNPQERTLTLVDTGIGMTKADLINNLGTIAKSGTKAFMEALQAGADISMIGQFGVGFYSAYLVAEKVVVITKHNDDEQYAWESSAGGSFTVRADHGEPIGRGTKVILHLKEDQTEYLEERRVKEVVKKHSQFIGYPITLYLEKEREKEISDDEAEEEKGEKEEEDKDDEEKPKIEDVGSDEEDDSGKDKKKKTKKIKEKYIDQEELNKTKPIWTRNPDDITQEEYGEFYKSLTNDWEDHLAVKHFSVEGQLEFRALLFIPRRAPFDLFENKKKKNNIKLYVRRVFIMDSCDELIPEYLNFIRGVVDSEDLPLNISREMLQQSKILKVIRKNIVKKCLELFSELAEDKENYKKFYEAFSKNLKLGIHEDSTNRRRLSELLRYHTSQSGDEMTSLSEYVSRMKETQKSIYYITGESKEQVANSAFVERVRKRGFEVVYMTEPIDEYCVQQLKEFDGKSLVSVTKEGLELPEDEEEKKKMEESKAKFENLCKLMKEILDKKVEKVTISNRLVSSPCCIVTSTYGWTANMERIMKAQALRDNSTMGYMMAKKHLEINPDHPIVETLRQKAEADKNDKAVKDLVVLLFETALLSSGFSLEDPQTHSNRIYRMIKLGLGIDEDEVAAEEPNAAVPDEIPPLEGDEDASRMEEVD
T2 sequence (P08238 whole entry, the tested form may be a part): as above

B1: AIPL1-Δα3 (Δ111–132) (natural protein, mouse)
chain: MDVSLLLNVEGVKKTILHGGTGELPSFITGSRVTFHFRTMKCDDERTVIDDSKQVGQPMSIIIGNMFKLEVWETLLTSMRLGEVAEFWCDTIHTGVYPMLSRSLRQVAEGGGGGGGYEDLDELQKEPQPLVFLIELLQVEAPNEYQRETWNLNNEERMQAVPLLHGEGNRLYKLGRYDQAATKYQEAIVCLRNLQTKEKPWEVEWLKLEKMINTLILNYCQCLLKKEEYYEVLEHTSDILRHHPGIVKAYYMRARAHAEVWNAEEAKADLEKVLELEPSMRKAVLRELRLLESRLADKQEEERQRCRSMLG
notes: AIPL1, mouse, residues before the replaced stretch 111-132; five glycine residues that replace residues 111 to 132 of AIPL1 (told in words); AIPL1, mouse, residues after the replaced stretch 111-132, to the end of the full-length protein (aa 328); also called AIPL1-Δα3 (loop deletion); α3-helix deletion; source: E. coli BL21-(DE3), purified (Ni-NTA, Mono Q5, SEC)
Turning to B1, the binding result in assay [1] is on record as “binds”.

B2: full-length mouse AIPL1 (aa 1–328) (natural protein, UniProt Q924K1 1-328, looked up)
chain: MDVSLLLNVEGVKKTILHGGTGELPSFITGSRVTFHFRTMKCDDERTVIDDSKQVGQPMSIIIGNMFKLEVWETLLTSMRLGEVAEFWCDTIHTGVYPMLSRSLRQVAEGKDPTSWHVHTCGLANMFAYHTLGYEDLDELQKEPQPLVFLIELLQVEAPNEYQRETWNLNNEERMQAVPLLHGEGNRLYKLGRYDQAATKYQEAIVCLRNLQTKEKPWEVEWLKLEKMINTLILNYCQCLLKKEEYYEVLEHTSDILRHHPGIVKAYYMRARAHAEVWNAEEAKADLEKVLELEPSMRKAVLRELRLLESRLADKQEEERQRCRSMLG
notes: also called wt AIPL1; source: E. coli BL21-(DE3), purified (Ni-NTA, Mono Q5, SEC)
Regarding B2, in assay [2], the Kd was ~17 µM and 32 µM and 33 µM; the koff is 1.2 s⁻¹; the kon was determined as 71000 M⁻¹ s⁻¹. Besides, in assay [1], the Kd was 4.8 µM, the dissociation rate constant (koff) turned out to be 0.32 s⁻¹ and the kon worked out at 150000 M⁻¹ s⁻¹. In assay [3], the “stoichiometry N” value was 0.5 AIPL1 per HSP90 chain (1:2).

B3: AIPL1_(1–316) (domain or fragment, mouse, UniProt Q924K1 1-316, looked up)
chain: MDVSLLLNVEGVKKTILHGGTGELPSFITGSRVTFHFRTMKCDDERTVIDDSKQVGQPMSIIIGNMFKLEVWETLLTSMRLGEVAEFWCDTIHTGVYPMLSRSLRQVAEGKDPTSWHVHTCGLANMFAYHTLGYEDLDELQKEPQPLVFLIELLQVEAPNEYQRETWNLNNEERMQAVPLLHGEGNRLYKLGRYDQAATKYQEAIVCLRNLQTKEKPWEVEWLKLEKMINTLILNYCQCLLKKEEYYEVLEHTSDILRHHPGIVKAYYMRARAHAEVWNAEEAKADLEKVLELEPSMRKAVLRELRLLESRLADKQ
notes: source: E. coli BL21-(DE3), purified (Ni-NTA, Mono Q5, SEC)
B3: in assay [1], the Kd was found to be 27 µM.

The record behind these values is article PMC8857470, “Molecular insights into the maturation of phosphodiesterase 6 by the specialized chaperone complex of HSP90 with AIPL1” (The Journal of Biological Chemistry, 2022).
